Experimental data taken from doi:10.1101/2020.08.21.260323.

Assays:
[1] = target: SpaKC, class III lanthipeptide synthetase (LanKC) homolog from S. sparsogenes ATCC 25498 (S. sparsogenes ATCC 25498); assay: MST
[2] = target: SpaKC-SpaF complex (S. sparsogenes ATCC 25498); assay: MST
[3] = target: SpaF, FMN-dependent cysteine decarboxylase of the spa gene cluster (S. sparsogenes ATCC 25498); assay: crystal structure

Row | Substance | Kd [1] | Kd [2] | stoichiometry N [3]
1 | SpaA leader peptide | 275 nM | – | –
2 | SpaA precursor peptide | 217 nM | 94 nM | –
3 | TvaF, cysteine decarboxylase from thioviridamide biosynthesis (enzyme) | 2270 nM | – | –
4 | SpaF, FMN-dependent cysteine decarboxylase of the spa gene cluster (enzyme) | 182 nM | – | 12
